Source: patent US20110263454A1, “Methods of Identifying Functional Characteristics of Promoters, Transcription Modifying Proteins and Transcription Modulating Agents” (Salk Institute for Biological Studies, priority 2008, published 2011)

B1: PPARd: Peroxisome proliferator activated receptor δ (NR1C2), cDNA driver (protein, UniProt Q03181 1-441, looked up)
Peroxisome …: MEQPQEEAPEVREEEEKEEVAEAEGAPELNGGPQHALPSSSYTDLSRSSSPPSLLDQLQMGCDGASCGSLNMECRVCGDKASGFHYGVHACEGCKGFFRRTIRMKLEYEKCERSCKIQKKNRNKCQYCRFQKCLALGMSHNAIRFGRMPEAEKRKLVAGLTANEGSQYNPQVADLKAFSKHIYNAYLKNFNMTKKKARSILTGKASHTAPFVIHDIETLWQAEKGLVWKQLVNGLPPYKEISVHVFYRCQCTTVETVRELTEFAKSIPSFSSLFLNDQVTLLKYGVHEAIFAMLASIVNKDGLLVANGSGFVTREFLRSLRKPFSDIIEPKFEFAVKFNALELDDSDLALFIAAIILCGDRPGLMNVPRVEAIQDTILRALEFHLQANHPDAQYLFPKLLQKMADLRQLVTEHAQMMQRIKKTETETSLHPLLQEIYKDMY
B2: RARa: Retinoic acid receptor α (NR1B1), nuclear hormone receptor cDNA driver (protein, UniProt P10276 1-462, looked up)
Retinoic acid receptor alpha: MASNSSSCPTPGGGHLNGYPVPPYAFFFPPMLGGLSPPGALTTLQHQLPVSGYSTPSPATIETQSSSSEEIVPSPPSPPPLPRIYKPCFVCQDKSSGYHYGVSACEGCKGFFRRSIQKNMVYTCHRDKNCIINKVTRNRCQYCRLQKCFEVGMSKESVRNDRNKKKKEVPKPECSESYTLTPEVGELIEKVRKAHQETFPALCQLGKYTTNNSSEQRVSLDIDLWDKFSELSTKCIIKTVEFAKQLPGFTTLTIADQITLLKAACLDILILRICTRYTPEQDTMTFSDGLTLNRTQMHNAGFGPLTDLVFAFANQLLPLEMDDAETGLLSAICLICGDRQDLEQPDRVDMLQEPLLEALKVYVRKRRPSRPHMFPKMLMKITDLRSISAKGAERVITLKMEIPGSMPPLIQEMLENSEGLDTLSGQPGGGGRDGGGLAPPPGSCSPSLSPSSNRSSPATHSP

Columns and labels:
[1] = test system: hCYP3A4 promoter; assay: NHR-promoter luciferase screen, hCYP3A4 promoter; assay type: cell-based, human; conditions: for Luc. act., normalized to lacZ / Normalized Luc. act., normalized to control: CYP3A4 promoter, HR/ligand component; for hCYP3A4 promoter reporter activity: transcription factor +/- ligand, control = 1.00
Procedure: (§1) Briefly, there were co-expressed 50 ng of each NHR/NHR homodimer or NHR/RXR heterodimer with 100 ng promoter/luciferase construct and 50 ng of LacZ (as a control for transfection efficiency) in CV-1 cells using Fugene HD (Roche) as a transfection reagent (alternatively or additionally, a CMV-YFP construct can be used as a transfection control). Each of the nuclear hormone receptors that were used in these experiments was cloned into a pcDNA3.1 vector and comprised a C-terminally linked V5H6 tag.
(§2) The promoters that facilitate transcription of the indicated gene products that were tested using the protocols described herein are listed in the first row of the table. The nuclear hormone receptors and, where applicable, ligands that were assayed for their transcriptional effects on the promoters are listed in the first column of the table. The data represent the luciferase activity of each sample normalized to both the lacZ activity of that sample and to a control, e.g., no NHR or ligand, as customary in the art. As described previously, these normalizations allow the transcriptional activity of each reporter cell to be compared to other samples.
(§3) Tables 7-40 show the transcriptional effects of the hormone receptors, and, where applicable, ligands (orphan receptors are screened without ligand), on each individual promoter. […] The control data of each table are shown in their last rows.

[2] = test system: mGhrelin promoter; assay: NHR-promoter luciferase screen, mGhrelin promoter; assay type: cell-based, mouse; conditions: for Luc. act., normalized to lacZ / Normalized Luc. act., normalized to control: Table 8, mGhrelin; for Results of assays of transcription factor (+/- ligand) with mGhrelin: Table 6d, luciferase activity relative to control (control = 1.00)
Procedure: (§4) The use, feasibility, and reproducibility of the functional NHR-promoter screen in a 48-well format have been tested validated. Briefly, there were co-expressed 50 ng of each NHR/NHR homodimer or NHR/RXR heterodimer with 100 ng promoter/luciferase construct and 50 ng of LacZ (as a control for transfection efficiency) in CV-1 cells using Fugene HD (Roche) as a transfection reagent (alternatively or additionally, a CMV-YFP construct can be used as a transfection control). Each of the nuclear hormone receptors that were used in these experiments was cloned into a pcDNA3.1 vector and comprised a C-terminally linked V5H6 tag. Twenty-four hours after transfection, appropriate ligands were added, where applicable, (see Table 5 for various ligands and concentrations and after 48 hrs, samples were assayed for luciferase and LacZ activity. To measure for luciferase activity 15 ul of sample was added to 30 ul of luciferase buffer (20 mM tricine, 1.07 mM MgCarbonate, 2.67 mM MgSulfate, 0.1 mM Naz-EDTA, 5 mM DTT, 5 mM ATP, 0.15 mg/ml CoA, 0.5 mM Luciferin), mixed briefly, and run in a Perkin Elmer Victor 5 luminometer. Thus, the functional NHR-promoter screen was used to observe the transcriptional activity of 29 promoters from various physiological pathways including inflammation, lipid and sugar metabolism, cholesterol transport, xenobiotic metabolism, and circadian rhythm.
as §2, §3

[3] = test system: mAgrp promoter; assay: NHR-promoter luciferase screen, mAgrp promoter; assay type: cell-based, mouse; conditions: for Results of assays of transcription factor (+/- ligand) with mAgrp: Table 6d, luciferase activity relative to control (control = 1.00); for Luc. act., normalized to lacZ / Normalized Luc. act., normalized to control: mAgrp promoter, HR component with or without ligand; for Normalized Luc. act., normalized to control: relative to control
Procedure: as §4, §2, §3

[4] = test system: mABCA1 promoter; assay: NHR-promoter luciferase screen, mABCA1 promoter; assay type: cell-based, mouse; conditions: for Luc. act., normalized to lacZ / Normalized Luc. act., normalized to control: ABCA1 promoter, hormone receptor with or without its ligand; for Normalized Luc. act., normalized to control: relative to control; for mABCA1 promoter reporter activity: transcription factor +/- ligand, control = 1.00
Procedure: as §4, §2, §3

[5] = test system: mPgc1b promoter; assay: NHR-promoter luciferase screen, mPgc1b promoter; assay type: cell-based, mouse; conditions: for Luc. act., normalized to lacZ / Normalized Luc. act., normalized to control: PGC1b promoter reporter, co-transfected HR, without or with its ligand; for Normalized Luc. act., normalized to control: relative to control; for luciferase activity normalized to lacZ activity and to a control, mPgc1b: mPgc1b promoter-luciferase, CV-1 cells, NHR +/- ligand, control = 1.00
Procedure: as §1, §2, §3

Molecule | Luc. act., normalized to lacZ [1] | Normalized Luc. act., normalized to control [1] | hCYP3A4 promoter reporter activity [1] | Luc. act., normalized to lacZ [2] | Normalized Luc. act., normalized to control [2] | Results of assays of transcription factor (+/- ligand) with mGhrelin [2] | Results of assays of transcription factor (+/- ligand) with mAgrp [3] | Luc. act., normalized to lacZ [3] | Normalized Luc. act., normalized to control [3] | Luc. act., normalized to lacZ [4] | Normalized Luc. act., normalized to control [4] | mABCA1 promoter reporter activity [4] | Luc. act., normalized to lacZ [5] | Normalized Luc. act., normalized to control [5] | luciferase activity normalized to lacZ activity and to a control, mPgc1b [5]
B1 | 5.0 | 1.1 | 1.12 | 56.1 | 1.1 | 1.07 | 1.32 | 52.4 | 1.3 | 13.8 | 2.5 | 2.46 | 7.88 | 0.7 | 0.67
B2 | 4.2 | 0.9 | 0.94 | 67.2 | 1.3 | 1.29 | 2.05 | 81.1 | 2.0 | 24.6 | 4.4 | 4.39 | 12.69 | 1.1 | 1.07
